This is an account of results in the Immune Epitope Database (IEDB).

In general, IC50 refers to the midpoint of a concentration-inhibition curve. Higher therefore signals weaker potency. For orientation: Kd means the free concentration of one partner at which half of the binding sites on the other are occupied at equilibrium, for simple one-to-one binding. A higher Kd goes with lower affinity.

In one experiment the target is HLA-B*53:01. Description: IEDB peptide-MHC binding, purified MHC/competitive/fluorescence; ≥ and ≤ were set here for values at or beyond the usual limits of such assays. Conditions: source organism: Ornithorhynchus anatinus.
The target of a further experiment is HLA-B*27:20. Description: IEDB peptide-MHC binding, purified MHC/competitive/fluorescence; filed as Kd, often an IC50 or EC50 that approximates it; ≥ and ≤ were set here for values at or beyond the usual limits of such assays. To be noted: source organism: Burkholderia mallei SAVP1.
For another experiment, the target named is HLA-B*45:06. The experiment is described as above. To be noted: source organism: Burkholderia mallei SAVP1.
For the next experiment, the target named is HLA-B*15:42. The description is as above. Conditions: source organism: Burkholderia mallei SAVP1.
For another experiment, the target named is HLA-B*83:01. The experiment is described as above. Conditions: source organism: Burkholderia mallei SAVP1.
Another experiment concerns the target HLA-B*08:02. The experiment can be described thus: IEDB peptide-MHC binding, purified MHC/direct/fluorescence; filed as Kd, often an IC50 or EC50 that approximates it; ≥ and ≤ were set here for values at or beyond the usual limits of such assays. Conditions: source organism: Burkholderia mallei ATCC 23344.
A further experiment addresses HLA-C*06:02. The description is as above. To be noted: source organism: Burkholderia mallei SAVP1.
The next experiment addresses HLA-C*07:02. Described as above. Conditions: source organism: Burkholderia mallei SAVP1.
A further experiment has as its target HLA-C*15:02. The experiment is described as above. Conditions: source organism: Burkholderia mallei SAVP1.
For the next experiment, the target named is HLA-B*08:01. Described as above. To be noted: source organism: Burkholderia mallei ATCC 23344.
A further experiment concerns the target HLA-C*05:01. The experiment is described as above. To be noted: source organism: Burkholderia mallei SAVP1.
Another experiment has as its target HLA-C*14:02. The description is as above. Conditions: source organism: Burkholderia mallei SAVP1.
Another experiment concerns the target HLA-B*15:02. The experiment can be described thus: IEDB peptide-MHC binding, purified MHC/competitive/fluorescence; filed as Kd, often an IC50 or EC50 that approximates it; ≥ and ≤ were set here for values at or beyond the usual limits of such assays. To be noted: source organism: Toxoplasma gondii RH.
Experiment [1] has as its target HLA-B*58:01. The experiment can be described thus: IEDB peptide-MHC binding, purified MHC/competitive/fluorescence; ≥ and ≤ were set here for values at or beyond the usual limits of such assays. Conditions: source organism: Homo sapiens.
A further experiment deals with HLA-B*51:01. Description: IEDB peptide-MHC binding, purified MHC/competitive/fluorescence; filed as Kd, often an IC50 or EC50 that approximates it; ≥ and ≤ were set here for values at or beyond the usual limits of such assays.
The next experiment concerns the target HLA-B*44:02. Described as above. To be noted: source organism: Homo sapiens.
The target of another experiment is HLA-A*29:02. The experiment is described as above. Conditions: source organism: Homo sapiens.
Experiment [2] has as its target HLA-A*30:01. The description is as above. Conditions: source organism: Homo sapiens.
The target of another experiment is HLA-A*02:50. Described as above. Conditions: source organism: Homo sapiens.
For the next experiment, the target named is HLA-A*25:01. The experiment is described as above. Conditions: source organism: Homo sapiens.
For another experiment, the target named is HLA-A*24:03. Described as above. Conditions: source organism: Homo sapiens.
Experiment [3] has as its target HLA-B*57:01. The description is as above. Conditions: source organism: Homo sapiens.
The target of a further experiment is HLA-B*15:01. Description: IEDB peptide-MHC binding, purified MHC/direct/fluorescence; filed as Kd, often an IC50 or EC50 that approximates it; ≥ and ≤ were set here for values at or beyond the usual limits of such assays.
For the next experiment, the target named is HLA-B*40:01. The experiment is described as above.
Experiment [4] has as its target HLA-A*02:01. Described as above. To be noted: source organism: Homo sapiens.
A further experiment concerns the target HLA-B*07:02. The experiment is described as above.
The next experiment has as its target HLA-A*69:01. The experiment is described as above.
Another experiment deals with HLA-B*39:01. The experiment can be described thus: IEDB peptide-MHC binding, purified MHC/competitive/fluorescence; filed as Kd, often an IC50 or EC50 that approximates it; ≥ and ≤ were set here for values at or beyond the usual limits of such assays. To be noted: source organism: Orthomarburgvirus marburgense.
A further experiment deals with HLA-A*11:01. The experiment is described as above. To be noted: source organism: Orthomarburgvirus marburgense.
For experiment [5], the target named is HLA-A*02:01. The description is as above. Conditions: source organism: Orthomarburgvirus marburgense.
For the next experiment, the target named is HLA-B*27:05. Description: IEDB peptide-MHC binding, purified MHC/direct/fluorescence; filed as Kd, often an IC50 or EC50 that approximates it; ≥ and ≤ were set here for values at or beyond the usual limits of such assays. Conditions: source organism: Marburg virus - Musoke, Kenya, 1980.
A further experiment addresses HLA-A*01:01. The description is as above. Conditions: source organism: Marburg virus - Musoke, Kenya, 1980.
Another experiment deals with HLA-A*03:01. The experiment is described as above. To be noted: source organism: Marburg virus - Musoke, Kenya, 1980.
The target in another experiment is HLA-A*26:01. The description is as above. To be noted: source organism: Ravn virus - Ravn, Kenya, 1987.
The next experiment deals with HLA-B*38:01. Described as above. To be noted: source organism: Ravn virus - Ravn, Kenya, 1987.
For a further experiment, the target named is HLA-B*48:01. The description is as above. To be noted: source organism: Marburg virus - Musoke, Kenya, 1980.
The next experiment deals with HLA-B*15:17. The experiment is described as above. To be noted: source organism: Marburg virus - Musoke, Kenya, 1980.
Experiment [6] addresses HLA-A*30:01. The description is as above. To be noted: source organism: Ravn virus - Ravn, Kenya, 1987.
The next experiment deals with HLA-A*31:01. The experiment is described as above. Conditions: source organism: Marburg virus - Musoke, Kenya, 1980.
The target in the next experiment is HLA-B*18:01. The description is as above. Conditions: source organism: Marburg virus - Musoke, Kenya, 1980.
The target of a further experiment is HLA-B*46:01. Described as above. Conditions: source organism: Marburg virus - Musoke, Kenya, 1980.
For experiment [7], the target named is HLA-B*58:01. The experiment is described as above. To be noted: source organism: Marburg virus - Musoke, Kenya, 1980.
Experiment [8] addresses HLA-B*57:01. The description is as above. To be noted: source organism: Marburg virus - Musoke, Kenya, 1980.
Where [9] appears, read: source organism: Marburg virus - Musoke, Kenya, 1980.

In turn, YSLEYFQF gave a half-maximal inhibitory concentration (IC50) in the experiment with HLA-B*53:01 of 4.79 µM.
Consider YARRYFYPL, for which the Kd was 0.0244 µM in the experiment with HLA-B*27:20; no less than 5 µM with HLA-B*45:06; no less than 5 µM in the experiment with HLA-B*15:42; no less than 5 µM with HLA-B*83:01; 0.043 µM with HLA-B*08:02; no less than 20 µM with HLA-C*06:02. For the same sequence, the Kd with HLA-C*07:02 is 0.362 µM; with HLA-C*15:02, 0.011 µM; with HLA-B*08:01, 0.002 µM; with HLA-C*05:01, no less than 20 µM; with HLA-C*14:02, 0.696 µM.
In the experiment with HLA-B*15:02, SLSSPDSAY returned a Kd of 0.0251 µM.
As for KSLTTTMQF, the IC50 in the experiment with HLA-B*58:01 [1] is 0.136 µM.
Consider EVIPYTPAM, for which the Kd is no less than 20 µM with HLA-B*51:01 (source organism: Homo sapiens); no less than 20 µM with HLA-B*44:02; no less than 20 µM with HLA-A*29:02; no less than 20 µM with HLA-A*30:01 [2]; no less than 20 µM with HLA-A*02:50; 0.0108 µM in the experiment with HLA-A*25:01. Further, the Kd in the experiment with HLA-A*24:03 is no less than 20 µM; with HLA-B*57:01 [3], no less than 20 µM; with HLA-B*15:01 (source organism: Homo sapiens), 4.76 µM; in the experiment with HLA-B*40:01 (source organism: Homo sapiens), 13.2 µM; with HLA-A*02:01 [4] it was 5.7 µM; with HLA-B*07:02 (source organism: Homo sapiens), 4.71 µM. Further, in the experiment with HLA-A*69:01 (source organism: Homo sapiens), the Kd was found to be 0.00717 µM.
Regarding VPAWLPLGI, the Kd is 2.68 µM in the experiment with HLA-B*39:01; 0.116 µM with HLA-B*51:01 (source organism: Orthomarburgvirus marburgense); no less than 20 µM with HLA-A*11:01; 1.05 µM in the experiment with HLA-A*02:01 [5]; no less than 20 µM with HLA-B*27:05; no less than 20 µM with HLA-A*01:01. Further, the Kd was no less than 20 µM with HLA-B*15:01 (setting [9]); no less than 20 µM with HLA-A*03:01; no less than 20 µM with HLA-B*40:01 (setting [9]); no less than 20 µM in the experiment with HLA-A*26:01; no less than 20 µM in the experiment with HLA-B*38:01; 0.732 µM in the experiment with HLA-B*07:02 (setting [9]). Moreover, the Kd with HLA-B*48:01 is no less than 20 µM; with HLA-A*69:01 (setting [9]), 0.0111 µM; in the experiment with HLA-B*15:17 it was 0.288 µM; in the experiment with HLA-A*30:01 [6] it was no less than 20 µM; in the experiment with HLA-A*31:01, no less than 20 µM; with HLA-B*18:01 it was 5.81 µM. Further, the Kd in the experiment with HLA-B*46:01, with HLA-B*58:01 [7] and with HLA-B*57:01 [8] was no less than 20 µM each time.
